The values that follow come from PMC4453016, “Novel Bifunctional Cyclic Chelator for ^89Zr Labeling–Radiolabeling and Targeting Properties of RGD Conjugates” (Molecular Pharmaceutics, 2015).

Where two headings read alike, the source gives them in different places.

Data set [1] deals with M21 cells (αvβ3 integrin positive). The experiment in a line: Internalization assay. The format is cell-based, human. The note with it: 37 °C, 90 min, total series. The procedure: M21 cells (αvβ3 integrin positive) were diluted with RPMI 1640 (Gibco, Invitrogen Corporation, Paisley, UK) containing 1% glutamine (m/v), 1% bovine serum albumin (BSA) (m/v), CaCl2 (1 mM), MgCl2 (1 mM), and MnCl2 (10 mM) to a concentration of 2.0 × 10^6 cells/mL. Aliquots of 1 mL cell solution were transferred to Eppendorf tubes for incubation at 37 °C for 1 h. After addition of [^89Zr]FSC(RGDfE)3, [^89Zr]FSC(succ-RGD)3, or [^89Zr]FSC(Mal-RGD)3 (approximately 1.5 × 10^6 cpm), the cells were incubated in triplicates with either PBS with 0.5% BSA (150 μL, total series) or with 10 μM c(RGDyV) in PBS/0.5% BSA (150 μL, nonspecific series) at 37 °C for 90 min. After the incubation time the tubes were centrifuged, and incubation was stopped by removal of the medium. Then the cells were washed twice with ice-cold TRIS-buffered saline. Subsequently, the cells were incubated two times in acid wash buffer (20 mM acetate buffer, pH 4.5) at 37 °C for 5 min. Then the tubes were centrifuged, and the supernatant was collected in plastic vials (membrane bound activity). In a last step the cells were lysed by addition of 2 M NaOH, and the radioactivity associated with cells was collected in plastic vials (internalized radioligand fraction). Protein content in the NaOH fraction was determined using a spectrometric method (Bradford assay). The internalized activity was calculated and expressed as percentage of total activity per milligram protein.

The conditions of data set [2]: pH 7.4.
For data set [3], the system named is αvβ3 integrin positive M21 and αvβ3 integrin negative M21-L tumor xenografts. On the set-up: species or system BALB/c nude mice. As to conditions: mouse, in vivo, iv, 1 h. As to the method: (§1) For the evaluation of biodistribution, four healthy female BALB/c mice (Charles River Laboratories, Sulzfeld, GER) were intravenously injected with [^89Zr]TAFC (∼1.5 MBq/mouse, ∼4 μg of precursor) into the tail vein and sacrificed at 6 h postinjection (p.i.). For the evaluation of tumor uptake of [^89Zr]FSC(succ-RGD)3 female, athymic BALB/c nude mice (Charles River Laboratories) were used. For the induction of tumor xenografts mice were injected subcutaneously with 5 × 10^6 αvβ3 integrin positive M21 cells into the right hind limb and with 5 × 10^6 αvβ3 integrin negative M21-L cells (negative control) into the left hind limb of the same mouse (n = 4). The tumors were allowed to grow until they had reached a volume of 0.3 to 0.6 cm^3. On the day of the experiment [^89Zr]FSC(succ-RGD)3 (∼0.5 MBq/mouse, ∼0.5 μg of peptide) was intravenously injected in the lateral tail vein. Mice were sacrificed by cervical dislocation at 1, 2, and 4 h after injection. Organs (spleen, pancreas, stomach, intestine, kidney, liver, heart, and lung), blood, muscle tissue, bone, and tumors were dissected and weighted. As a comparison, four tumor-bearing mice were intravenously injected in the tail vein with [^68Ga]FSC(succ-RGD)3 (∼0.5 MBq/mouse, ∼0.5 μg of precursor) and sacrificed at 1 h p.i. Activity of the different samples was measured in the gamma counter. Results were expressed as percentage of injected dose per gram tissue (% ID/g).

Details of data set [4]: species or system BALB/c nude mice. As to conditions: mouse, in vivo, iv. The procedure: as §1
The nature of data set [5]: Stability assay in 1000-fold molar excess of EDTA solution (ITLC). The format is physicochemical. The note with it: competitor EDTA 1000-fold excess, 37 °C, n = 3. The procedure:
Determination of the stability of [^89Zr]DFO, [^89Zr]TAFC, and [^89Zr]FSC-RGD conjugates was carried out by incubating the radioligands in PBS, 1000-fold molar excess of EDTA solution with different pH (pH 7 and pH 6; radioligand vs EDTA: 25 μM vs 25 mM) as well as in human serum for 7 days at 37 °C, respectively. At selected time points three aliquots of PBS and EDTA solution were analyzed directly via ITLC, while the three serum aliquots were mixed with 500 μL of CH3CN, vortexed, and centrifuged at 20,000 rcf for 2 min prior to analysis.

In data set [6] the test system is αvβ3 integrin positive M21 and αvβ3 integrin negative M21-L tumor xenografts. The format is in vivo, BALB/c nude mice. The note with it: ~5 MBq/mouse i.v., monitoring period of 24 h. As to the method:
MicroPET/CT imaging experiments were conducted on an Inveon microPET/CT scanner (Siemens Preclinical Solutions, Knoxville, USA). A group of four M21-tumor xenograft bearing BALB/c nude mice were administered with [^89Zr]FSC(succ-RGD)3 (∼5 MBq/mouse, ∼5 μg of peptide) via intravenous tail vein injection. MicroPET images were acquired under general anesthesia (isoflurane/O2) for 20 min. PET data for each mouse were recorded via static scans at 1, 4, and 24 h p.i. The microPET scans were reconstructed with Inveon Acquisition Workplace software (version 1.5; Siemens Preclinical Solutions), using a 3-dimensional fast maximum a posteriori algorithm with the following parameters: matrix, 256 × 256 × 161; pixel size, 0.4 × 0.4 × 0.8 mm; β-value of 1.5 mm resolution with uniform variance.

Where [7] appears, read: uptake in αvβ3 integrin positive M21 tumor.

One may read the logD as lipophilicity at a set pH, counting ionised and neutral species. For `C/C1=C/C(=O)N(O)CCC[C@H](NC(=O)CC[C@@H]2NC(=O)[C@@H](Cc3ccccc3)NC(=O)[C@H](CC(=O)O)NC(=O)CNC(=O)[C@H](CCCNC(=N)N)NC2=O)C(=O)OCC/C(C)=C\C(=O)N(O)CCC[C@H](NC(=O)CC[C@@H]2NC(=O)[C@@H](Cc3ccccc3)NC(=O)[C@H](CC(=O)O)NC(=O)CNC(=O)[C@H](CCCNC(=N)N)NC2=O)C(=O)OCC/C(C)=C\C(=O)N(O)CCC[C@H](NC(=O)CC[C@@H]2NC(=O)[C@@H](Cc3ccccc3)NC(=O)[C@H](CC(=O)O)NC(=O)CNC(=O)[C@H](CCCNC(=N)N)NC2=O)C(=O)OCC1` [[^89Zr]FSC(RGDfE)3, metal not drawn], in data set [1], the “internalized activity, % of total activity per milligram protein” value is 2.3 ± 0.3 % cpm/mg. Also, the logD in data set [2] was -3.
For `C/C1=C/C(=O)N(O)CCC[C@H](NC(=O)CCC(=O)NCCCC[C@@H]2NC(=O)[C@@H](Cc3ccccc3)NC(=O)[C@H](CC(=O)O)NC(=O)CNC(=O)[C@H](CCCNC(=N)N)NC2=O)C(=O)OCC/C(C)=C\C(=O)N(O)CCC[C@H](NC(=O)CCC(=O)NCCCC[C@@H]2NC(=O)[C@@H](Cc3ccccc3)NC(=O)[C@H](CC(=O)O)NC(=O)CNC(=O)[C@H](CCCNC(=N)N)NC2=O)C(=O)OCC/C(C)=C\C(=O)N(O)CCC[C@H](NC(=O)CCC(=O)NCCCC[C@@H]2NC(=O)[C@@H](Cc3ccccc3)NC(=O)[C@H](CC(=O)O)NC(=O)CNC(=O)[C@H](CCCNC(=N)N)NC2=O)C(=O)OCC1` [[^68Ga]FSC(succ-RGD)3] [metal not drawn, reference compound], in data set [3], the blood activity was 0.63 ± 0.26 % ID/g, the “uptake in the spleen” value is 3.27 ± 0.64 % ID/g and the “uptake in αvβ3 integrin negative M21-L tumors” value is recorded as 1.10 ± 0.30 % ID/g.
For `C/C1=C/C(=O)N(O)CCC[C@H](NC(=O)CCN2C(=O)CC(SCCOCCOCCOCCOCCC(=O)NCCCC[C@@H]3NC(=O)[C@@H](Cc4ccccc4)NC(=O)[C@H](CC(=O)O)NC(=O)CNC(=O)[C@H](CCCNC(=N)N)NC3=O)C2=O)C(=O)OCC/C(C)=C\C(=O)N(O)CCC[C@H](NC(=O)CCN2C(=O)CC(SCCOCCOCCOCCOCCC(=O)NCCCC[C@@H]3NC(=O)[C@@H](Cc4ccccc4)NC(=O)[C@H](CC(=O)O)NC(=O)CNC(=O)[C@H](CCCNC(=N)N)NC3=O)C2=O)C(=O)OCC/C(C)=C\C(=O)N(O)CCC[C@H](NC(=O)CCN2C(=O)CC(SCCOCCOCCOCCOCCC(=O)NCCCC[C@@H]3NC(=O)[C@@H](Cc4ccccc4)NC(=O)[C@H](CC(=O)O)NC(=O)CNC(=O)[C@H](CCCNC(=N)N)NC3=O)C2=O)C(=O)OCC1` (stereo partly shown) [[^89Zr]FSC(Mal-RGD)3, metal not drawn], the “internalized activity, % of total activity per milligram protein” value in data set [1] stood at 1.6 ± 0.1 % cpm/mg. Further, the logD in data set [2] is -2.9.
What is called tissue uptake is the percentage of the injected dose found per gram of tissue. Read a low tissue uptake as little accumulation. Consider `C/C1=C/C(=O)N(O)CCC[C@H](NC(=O)CCC(=O)NCCCC[C@@H]2NC(=O)[C@@H](Cc3ccccc3)NC(=O)[C@H](CC(=O)O)NC(=O)CNC(=O)[C@H](CCCNC(=N)N)NC2=O)C(=O)OCC/C(C)=C\C(=O)N(O)CCC[C@H](NC(=O)CCC(=O)NCCCC[C@@H]2NC(=O)[C@@H](Cc3ccccc3)NC(=O)[C@H](CC(=O)O)NC(=O)CNC(=O)[C@H](CCCNC(=N)N)NC2=O)C(=O)OCC/C(C)=C\C(=O)N(O)CCC[C@H](NC(=O)CCC(=O)NCCCC[C@@H]2NC(=O)[C@@H](Cc3ccccc3)NC(=O)[C@H](CC(=O)O)NC(=O)CNC(=O)[C@H](CCCNC(=N)N)NC2=O)C(=O)OCC1` [[^89Zr]FSC(succ-RGD)3, metal not drawn], for which the tissue uptake at 1 h is 6.42 ± 0.72 %ID/g in data set [4] (activity in kidneys), 0.71 ± 0.05 %ID/g in data set [4] (activity in the bone), 1.78 ± 0.22 %ID/g in data set [4] (uptake in the spleen) and 2.83 ± 0.6 %ID/g in data set [4] (setting [7]). The tissue uptake at 2 h in data set [4] (activity in kidneys) stood at 5.77 ± 0.2 %ID/g; in data set [4] (activity in the bone) it was 0.79 ± 0.28 %ID/g; in data set [4] (blood activity), 0.15 %ID/g; in data set [4] (setting [7]), 3.48 ± 0.45 %ID/g. Besides, the tissue uptake at 4 h in data set [4] (activity in kidneys) stood at 5.26 ± 0.9 %ID/g; in data set [4] (activity in the bone) it was 0.73 ± 0.27 %ID/g; in data set [4] (blood activity) it was 0.1 ± 0.01 %ID/g; in data set [4] (uptake in αvβ3 integrin negative M21-L tumors), 0.5 %ID/g; in data set [4] (setting [7]), 2.86 ± 0.3 %ID/g. Besides, in data set [2], the logD is -2.9.
`C/C1=C/C(=O)N(O)CCC[C@H](NC(=O)CCC(=O)NCCCC[C@@H]2NC(=O)[C@@H](Cc3ccccc3)NC(=O)[C@H](CC(=O)O)NC(=O)CNC(=O)[C@H](CCCNC(=N)N)NC2=O)C(=O)OCC/C(C)=C\C(=O)N(O)CCC[C@H](NC(=O)CCC(=O)NCCCC[C@@H]2NC(=O)[C@@H](Cc3ccccc3)NC(=O)[C@H](CC(=O)O)NC(=O)CNC(=O)[C@H](CCCNC(=N)N)NC2=O)C(=O)OCC/C(C)=C\C(=O)N(O)CCC[C@H](NC(=O)CCC(=O)NCCCC[C@@H]2NC(=O)[C@@H](Cc3ccccc3)NC(=O)[C@H](CC(=O)O)NC(=O)CNC(=O)[C@H](CCCNC(=N)N)NC2=O)C(=O)OCC1` [[^89Zr]FSC(succ-RGD)3] [metal not drawn]: the “% intact starting species by incubation time” value in data set [5] (pH 7, 1 h) came out at 98.2 ± 0.1%; in data set [5] (pH 7, 4 h) it was 98.2 ± 0.1%; in data set [5] (pH 7, 1 d), 96.5 ± 0.5%; in data set [5] (pH 7, 3 d), 96.0 ± 0.4%; in data set [5] (pH 7, 5 d), 94.5 ± 0.3%; in data set [5] (pH 7, 7 d), 93.9 ± 0.7%. Besides, in data set [1], the “internalized activity, % of total activity per milligram protein” value was 2.1 ± 0.3 % cpm/mg. In data set [3], the blood activity was determined as 0.16 ± 0.04 % ID/g. In addition, the “uptake in αvβ3 integrin negative M21-L tumors in microPET/CT” value in data set [6] is reported as “no uptake”. In data set [6], the “visualization of αvβ3 integrin positive M21 tumors in microPET/CT” value is reported as “clearly visualized over the whole monitoring period of 24 h”.
